Where no end group is shown, it is not given here. Some results are limits rather than exact numbers.

Results on 6 molecules are retold here after patent US20160305952A1 (ROCHE SEQUENCING SOLUTIONS, published 2016).

Assay [1] concerns the target T1, streptavidin (UniProt P22629 37-163, limits assumed).
T1 construct: amine-coupled to a CM5 chip for SPR; also called SA
Nature of the assay: SPR, Biacore X100, streptavidin on CM5 chip, peptide in solution. An excerpt:
(§1) A selection of streptavidin peptide binders listed in Table 15 were synthesized using standard column-based synthesis techniques by UW Biotechnology center (Madison, Wis.) or by Peptide2.0 (Chantilly, Va.) at 98-99% purity. Strep-tag II peptide NH2-[…]-COOH was purchased from IBA GmbH (Goettingen, Germany). Synthesized peptides were then characterized by Surface Plasmon Resonance (SPR) to identify binding characteristics including the association rate constant (kₛ), dissociation rate constant (kd), and equilibrium dissociation […] (kd/kₐ=KD). In one aspect, SPR experiments were performed by using Biacore X100 instrument (GE Healthcare). Preliminarily, 60 μl of 100 μg/ml streptavidin in 10 mM Na-acetate, pH5.0 was immobilized to flow cell 2 (Fc2) of a sensor chip CM5 (GE Healthcare) using Amine Coupling Kit (GE Healthcare) at 20° C. for 6 min. Peptide stock solutions were prepared at 5 or 10 mM concentration in water and diluted in HBS-EP+ (GE Healthcare) buffer before SPR experiments. Peptide binding was performed in a multiple kinetics mode using HBS-EP+ as a running buffer and 0.2 M NaCl, 10 mM NaOH or 10 mM HCl-glycine, […] as regeneration buffer. Binding kinetics parameters were calculated with Biacore X100 software.

The target in assay [2] is T1, streptavidin. In words: SPR, Biacore X100, streptavidin on CM5 chip, peptide in solution; second KD value printed for the same peptide.
Source text: as §1

The target in assay [3] is T2, Tumor Necrosis Factor Alpha (human, UniProt P01375 77-233).
T2 construct: also called TNFα; TNF-α
Nature of the assay: peptide array, 5-mer library, 5Z linker.

Assay [4] concerns the target T3, Prostate Specific Antigen (human, UniProt P07288 25-261).
T3 construct: also called PSA
Nature of the assay: peptide array, double substitution/deletion library.

Assay [5] deals with T1, streptavidin. Nature of the assay: SPR.
Source text: as §1

T3 sequence (P07288 25-261 limits assumed): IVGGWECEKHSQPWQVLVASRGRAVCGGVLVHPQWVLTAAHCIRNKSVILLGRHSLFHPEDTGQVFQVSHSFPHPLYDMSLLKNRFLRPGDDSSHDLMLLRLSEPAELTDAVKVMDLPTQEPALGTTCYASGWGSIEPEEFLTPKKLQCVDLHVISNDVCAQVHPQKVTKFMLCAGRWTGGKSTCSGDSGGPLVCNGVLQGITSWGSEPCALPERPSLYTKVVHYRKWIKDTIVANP
T1 sequence (P22629 37-163 limits assumed): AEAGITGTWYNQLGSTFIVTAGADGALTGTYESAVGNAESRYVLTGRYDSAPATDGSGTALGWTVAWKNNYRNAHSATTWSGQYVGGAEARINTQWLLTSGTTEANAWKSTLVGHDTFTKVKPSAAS
T2 sequence (P01375 77-233 limits assumed): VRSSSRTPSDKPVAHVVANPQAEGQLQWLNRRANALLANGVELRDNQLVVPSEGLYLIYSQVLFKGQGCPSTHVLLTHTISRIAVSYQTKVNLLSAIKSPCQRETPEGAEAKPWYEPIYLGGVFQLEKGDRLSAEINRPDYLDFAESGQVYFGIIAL

B1: NH2-EWVHPQFEQKAK-amide (peptide)
peptide: H-EWVHPQFEQKAK-NH2
notes: free peptide
B1: the Kd amounted to 5.68 µM in assay [1] and 5.87 µM in assay [2].

B2: VTVYV (peptide)
peptide: VTVYV
modifications: also: array-bound via 5Z linker
Take B2: the binding result in assay [3] was “binds”.

B3: GTDFEVYFPKI (peptide)
peptide: GTDFEVYFPKI
In the case of B3, the binding result in assay [4] is listed as “binds”.

B4: NH2-RDPAPAWAHGGG-amide (peptide)
peptide: H-RDPAPAWAHGGG-NH2
notes: free peptide
With B4, the “fold change in KD as compared with the parent peptide …” value in assay [5] was ≥ 100 fold. In addition, in assay [1], binding was put at a Kd of 4.66 µM, the koff was 0.0696 s⁻¹ and the kon turned out to be 14900 M⁻¹ s⁻¹.

B5: GTGWEVHLGKG (peptide)
peptide: GTGWEVHLGKG
As for B5, in assay [4], the binding result is “binds”.

B6: ALDWQVYAGFG (peptide)
peptide: ALDWQVYAGFG
With B6, in assay [4], the binding result is reported as “binds”.
